Experimental data: publication PMC4109720

Assays:
myc-JIP1-F336A (human) = myc-JIP1-F336A (human) (UniProt Q9UQF2); test: co-IP
myc-JIP1-ΔLIR (human) = myc-JIP1-ΔLIR (human) (UniProt Q9UQF2); test: co-IP

GFP-LC3 (from UniProt Q9GZQ8 1-120) (natural protein)
percent of the GFP-LC3 binding of wildtype myc-JIP1 (densitometry of co-IP) (myc-JIP1-F336A (human)): 20% | percent of the GFP-LC3 binding of wildtype myc-JIP1 (densitometry of co-IP) (myc-JIP1-ΔLIR (human)): 20%
